We go through three molecules from article PMC5483177 (Cell reports, 2016).

Where two headings read alike, the source gives them in different places.

To fix the notation:
B1: CPS-6(H148A) (residues 63-305), His-tagged (enzyme, C. elegans, UniProt Q95NM6 63-305, looked up)
chain: PSRSAEIMKHGYPGFTNVRTYEDFVLSYDYKTRTAHWVCEHLTPERLKHAEGVDRKLCEFKPDITFPQKFLSQNTDYKCSGFDRGALAAAGNHRKSQLAVDQTFYLSNMSPQVGRGFNRDKWNDLEMHCRRVAKKMINSYIITGPLYLPKLEGDGKKYIKYQVIGDNNVAVPTHFFKVALFEVTPGKFELESYILPNAVIEDTVEISKFHVPLDAVERSAGLEIFARLDPKSIVKENGAKKGG
B3: WAH-1 (residues 214 to 700), His-tagged (domain or fragment, C. elegans, UniProt Q9U229 214-700, looked up)
chain: SEQQSMKPSESTEENTTTTSADGLLHCEYVIIGSGTAAYYASLSIRAKQAEAKVLMIGEEPELPYNRPPLSKELWWYGDETSATKLAYTPLSGKKRDIFYEVDGFFVSPEDLPKAVHGGVALLRGRKAVKICEEDKKVILEDGTTIGYDKLLIATGVRPKKEQVFEEASEEAKQKITYFHYPADFKRVERGLADKSVQKVTIIGNGLLASELSYSIKRKYGENVEVHQVFEEKYPAEDILPEHIAQKSIEAIRKGGVDVRAEQKVEGVRKCCKNVVLKLSDGSELRTDLVVVATGEEPNSEIIEASGLKIDEKLGGVRADKCLKVGENVWAAGAIATFEDGVLGARRVSSWENAQISGRLAGENMATAAADGKSEGKAFWYQPSFFTKFAPHLHINAIGKCDSSLETVSVHAEPDKDTPLEKAVVFYKSKEDGSIVGVLLLNVFGPSLDVARRIIDDRKKVDEYKEIAKLFPLYDPVKSDEDDAKSA

Data set [1] deals with the molecule itself. The data set is described as follows: SEC. A general note: SEC sorts molecules by how far they enter the pores of the column.
Data set [2] deals with B3. The data set is described as follows: other fluorescence titration.
Data set [3] concerns the molecule itself. As to the kind of experiment: SEC. This is another data set of the same source.
Data set [4] deals with B1. The data set is described as follows: other fluorescence titration.

As for B1, the stoichiometry N (in general, a count of units in the complex or per binding partner) in “SEC [1]” was determined as 2. Moreover, the Kd (usually the constant that tells how readily two partners part at equilibrium) in data set [2] amounted to 69.8 ± 2.8 nM.

B2: wild-type CPS-6 (residues 63-305), His-tagged (enzyme, C. elegans, UniProt Q95NM6 63-305, looked up)
chain: PSRSAEIMKHGYPGFTNVRTYEDFVLSYDYKTRTAHWVCEHLTPERLKHAEGVDRKLCEFKPDITFPQKFLSQNTDYKCSGFDRGHLAAAGNHRKSQLAVDQTFYLSNMSPQVGRGFNRDKWNDLEMHCRRVAKKMINSYIITGPLYLPKLEGDGKKYIKYQVIGDNNVAVPTHFFKVALFEVTPGKFELESYILPNAVIEDTVEISKFHVPLDAVERSAGLEIFARLDPKSIVKENGAKKGG
For the molecule B2, the “stoichiometry N” value in “SEC [1]” was 2.

B3: the “stoichiometry N” value in the data set “SEC [3]” is 2; in data set [4] it was 1.
